From the FLAb antibody collection (doi:10.7554/elife.23156) come the findings set out here.

The chains are these.
B1: scFv; the commonest letter at each place (parent)
chain 1: EVKLDETGGGLVQPGRPMKLSCVASGFTFSDYWMNWVRQSPEKGLEWVAQIRNKPYNYETYYSDSVKGRFTISRDDSKSSVYLQMNNLRVEDMGIYYCTGSYYGMDYWGQGTSVTVS
chain 2: DVVMTQTPLSLPVSLGDQASISCRSSQSLVHSNGNTYLRWYLQKPGQSPKVLIYKVSNRFSGVPDRFSGSGSGTDFTLKISRVEAEDLGVYFCSQSTHVPWTFGGGTKLEIK

The data set “fluorescein” covers variants of B1. Briefly: Kd (Tite-Seq). To be noted: with fluorescein; format: scFv 4-4-20, heavy + light.
In data set [1] the parent is B1. Put plainly: yeast surface expression (ratio to wild type); higher = more expressed. To be noted: format: scFv 4-4-20, heavy + light.

Consider chain 1 Y103C, for which the Kd in the data set with fluorescein came to 0.00493 µM. Besides, the yeast surface expression in data set [1] came out at 0.775.
With chain 1 Y103A, in the data set with fluorescein, the Kd came to 0.015 µM. Also, the yeast surface expression in data set [1] turned out to be 0.932.
In the same order, the values of chain 1 Y103I are 0.018 µM and 0.964.
As to chain 1 Y103E, the Kd with fluorescein turned out to be 0.0166 µM. Moreover, the yeast surface expression in data set [1] was 0.857.
Regarding chain 1 Y103I Y107F W108D, in the data set with fluorescein, the Kd was no less than 10 µM. Further, the yeast surface expression in data set [1] was determined as 0.437.
In the same order, the values of chain 1 Y103A W108E are no less than 10 µM and 0.603.
The matching figures for chain 1 Y103A W108D: no less than 10 µM and 0.576.
Turning to chain 1 Y102K Y103L G104F, the dissociation constant (Kd) with fluorescein is no less than 10 µM. In data set [1], the yeast surface expression is 0.545.
Take chain 1 Y102S Y107R: in the data set with fluorescein, the Kd worked out at 0.00251 µM. The yeast surface expression in data set [1] turned out to be 0.667.
Take chain 1 Y102S Y107W: the Kd in the data set with fluorescein was 0.00128 µM. Besides, the yeast surface expression in data set [1] was 0.747.
On to chain 1 Y103A G104Y G109T, for which the Kd with fluorescein was no less than 10 µM. Moreover, in data set [1], the yeast surface expression is 0.211.
In the same order, the values of chain 1 Y102Q G104H are no less than 10 µM and 0.672.
The matching figures for chain 1 Y102Q G104L: no less than 10 µM and 0.667.
In the same order, the values of chain 1 Y102Q G104T are no less than 10 µM and 0.546.
With chain 1 Y102V Y103G Y107F, the dissociation constant (Kd) with fluorescein was 6.27 µM. Besides, in data set [1], the yeast surface expression was 1.12.
Regarding chain 1 Y103E G109I, the Kd with fluorescein is no less than 10 µM. Besides, in data set [1], the yeast surface expression was 0.277.
In the same order, the values of chain 1 Y102G Y107F W108K are no less than 10 µM and 0.71.
In the same order, the values of chain 1 Y102P W108Y are no less than 10 µM and 0.464.
The matching figures for chain 1 Y102L G104W: no less than 10 µM and 0.263.
Take chain 1 Y102L G104C: the Kd with fluorescein was no less than 10 µM. For the same variant, the yeast surface expression in data set [1] came to 0.323.
In the same order, the values of chain 1 Y103A Y107T are 0.11 µM and 1.13.
In the same order, the values of chain 1 Y102S G109S are 0.00293 µM and 1.12.
The matching figures for chain 1 Y102S G109L: no less than 10 µM and 0.228.
Consider chain 1 Y102S G109Y, for which the dissociation constant (Kd) in the data set with fluorescein is no less than 10 µM. In addition, the yeast surface expression in data set [1] came out at 0.248.
The matching figures for chain 1 Y103H M105F Y107L: no less than 10 µM and 0.92.
With chain 1 Y102M Y103A Y107L, in the data set with fluorescein, the Kd was no less than 10 µM. In addition, in data set [1], the yeast surface expression came to 0.84.
In the same order, the values of chain 1 Y102H Y103C are 3.94 µM and 0.682.
The matching figures for chain 1 Y102H Y103E: 0.195 µM and 1.17.
The matching figures for chain 1 Y102K Y103A D106W: no less than 10 µM and 0.439.
Turning to chain 1 Y102Q M105D, in the data set with fluorescein, the Kd was no less than 10 µM. For the same variant, the yeast surface expression in data set [1] is 0.932.
Turning to chain 1 Y102Q M105V, the dissociation constant (Kd) with fluorescein was no less than 10 µM. For the same variant, the yeast surface expression in data set [1] was 1.05.
Regarding chain 1 Y102Q M105I, the Kd with fluorescein came out at 8.56 µM. The yeast surface expression in data set [1] is 0.843.
The matching figures for chain 1 Y102Q M105Y: 0.75 µM and 0.947.
Regarding chain 1 Y103C G109A, the dissociation constant (Kd) with fluorescein was no less than 10 µM. For the same variant, the yeast surface expression in data set [1] was 0.397.
As for chain 1 Y103C G109Y, the dissociation constant Kd with fluorescein is no less than 10 µM. Further, the yeast surface expression in data set [1] worked out at 0.494.
The matching figures for chain 1 Y103C G109D: no less than 10 µM and 0.356.
chain 1 Y102M M105T W108T: the Kd in the data set with fluorescein was no less than 10 µM. For the same variant, the yeast surface expression in data set [1] was found to be 0.539.
In the same order, the values of chain 1 Y102Q D106Y are no less than 10 µM and 0.268.
In the same order, the values of chain 1 Y103F G109F are no less than 10 µM and 0.237.
In the same order, the values of chain 1 Y103F M105T are no less than 10 µM and 1.01.
With chain 1 Y102K Y107K, the equilibrium dissociation constant (Kd) with fluorescein was 6.96 µM. Besides, in data set [1], the yeast surface expression was determined as 0.846.
The matching figures for chain 1 Y102K Y107I: 0.0302 µM and 1.
For the variant chain 1 Y102K Y107R, the equilibrium dissociation constant (Kd) in the data set with fluorescein stood at 0.923 µM. In data set [1], the yeast surface expression came out at 0.991.
In the same order, the values of chain 1 Y102K Y107H are 0.0233 µM and 0.909.
In the same order, the values of chain 1 Y103E Y107V are no less than 10 µM and 1.07.
Turning to chain 1 Y102Q Y107C, the Kd with fluorescein was no less than 10 µM. Also, the yeast surface expression in data set [1] was found to be 0.353.
For the variant chain 1 Y102Q Y107H, the Kd in the data set with fluorescein is 2.01 µM. Further, the yeast surface expression in data set [1] amounted to 1.01.
The matching figures for chain 1 Y102N M105C: no less than 10 µM and 1.22.
In the same order, the values of chain 1 Y102R Y107N are no less than 10 µM and 0.81.
Turning to chain 1 Y102T G104W, the Kd in the data set with fluorescein was no less than 10 µM. In data set [1], the yeast surface expression was found to be 0.638.
With chain 1 Y102K G109Y, the equilibrium dissociation constant (Kd) with fluorescein is no less than 10 µM. Also, the yeast surface expression in data set [1] came to 0.342.
The matching figures for chain 1 Y102K G109I: no less than 10 µM and 0.226.
In the same order, the values of chain 1 Y102S D106W are no less than 10 µM and 0.385.
The matching figures for chain 1 Y102S D106R: no less than 10 µM and 0.499.
Regarding chain 1 Y102R Y103P, the Kd with fluorescein is no less than 10 µM. In data set [1], the yeast surface expression came to 0.979.
In the same order, the values of chain 1 Y102L D106W are no less than 10 µM and 0.238.
The matching figures for chain 1 Y102L D106G: no less than 10 µM and 0.569.
For the variant chain 1 Y102L D106R, the dissociation constant (Kd) with fluorescein was no less than 10 µM. For the same variant, the yeast surface expression in data set [1] came to 0.344.

Usually Kd stands for the free concentration of one partner at which half of the binding sites on the other are occupied at equilibrium, for simple one-to-one binding.
